# Test results as given in the RNAGym collection of RNA variant scans (doi:10.1073/pnas.2313332121).
# B1: TPR t1 (parent)
# chain: GACCAAUCUGCCCUCAGAGCUCGAGAACAUCUUCGGAUGCAGAGGAGGCAGGCUUCGGUGGCGCGAUAGCGCCAACGUCCUCAACCUCCAAUGCAUCCCACCACAUGAUGAUGCCUGAAGAGCCUUGGUUUUUUG
# Variants of: B1
# Experiment: polymerase ribozyme fitness, log enrichment relative to wild type (log ratio); higher = more active; in vitro selection for triplet polymerase activity
# In short: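 Fitness is a logarithmic measure of how a genotype enriched relative to the wild type, with replicate averages weighted by inverse variance. The logarithm uses base 2, and enrichment came from Illumina sequencing of input and output libraries. Those libraries were PCR-built, transcribed mutants of each subunit of a heterodimeric triplet polymerase ribozyme, passed through one triplicate in vitro selection round that included frozen incubation at −7 °C, gel excision of extended constructs and streptavidin-bead capture. Genotypes were kept only if they had ≥10 input reads and ≥1 read per output.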
row,Variant,polymerase ribozyme fitness (log ratio)
1,GACCAAUCUGCCCUCAGAGCUCGAGAACAUCAUCGGAUGCAGAGGAGUCAGGCUUCGAUGGCGCGAUAGCGCCAACGUCCUCAACCUCCAAUGCAUCCCACCACAUGAUGAUGCCUGAAGAGUCUUGGUUUUUUG [U32A G48U G58A C123U],-4.55
2,GACCAAUCUGCCCUCAGAGCUCGAGAACAUCCUCGGAUGCAGAGGAGGCAGGCUUCGGUGGCGCGAUAGCGCCAACGUCCUCAACCUCCAAUGCAUCCCCCCACAUGAUGAUGCCUGAAGAGCCUUGGUUUUUUG [U32C A100C],-1.02
3,GACCAAUCUGCCCUCAGAGCUCGAGAACAUCCUCGGAUGCAGAGGAGGUAGGUUUCGGUGGCGCGAUAGCGCCAGCGUCCUCCACCUCCAAUGCAUCCUACCACAUGAUGAUGCCUGAAGAGCCUUGGUUUUUUG [U32C C49U C53U A75G A83C C99U],-5.45
4,GACCAAUCUGCCCUCAGAGCUCGAGAACAUCACCGGAUGCAGAGGAGGCAGGCUUCGGUGGCGCGAUAGCGCCAACGUCCUCAACCUCCAAUGCAUCCCACCACAUGAUGAUGCCUGAAGUGCCUUGGUUUUUUA [U32A U33C A121U G135A],-4.41
5,GACCAAUCUGCCCUCAGAGCUCGAGAACAUCAUCGGAUGCAGAGGAGGCAGGCUUCGGCGGCGCGAUAGCGCCAACGUCCUCAACCUCCAAUGCAUCCCACCACAUGAUGAUGCCUGAAGAGCCUUGGUUUUUUG [U32A U59C],-3.8
6,GACCAAUCUGCCCUCAGAGCUCGAGAACAUCCUCGGAUGCAGAGGUGGCAGGCUUCGGUGGCCCGAUAGCGCCAACGUCCUCAACCUCCAAUGCAUCCCACCAAAUGAUGAUGCCUCAAGAGCCUUGGUUUUUUG [U32C A46U G63C C104A G117C],-6.2
7,GACCAAUCUGCCCUCAGAGCUCGAGAACAUCCUCGGAUGCAUAGGAGGCAGGCUUCGGUGGCGCGAUAGCGCCAACGUCCUCAACCUCCAAUGCAUCCCACCACAUGAUGAUGCCUGAAGAGCCUUGGUUUUUUG [U32C G42U],-2.17
8,GACCAAUCUGCCCUCAGAGCUCGAGAACAUCCUCGGAUGCAGAGGAGGCAGGCUUCGGUGGCGCGAUAGCGCCAACGUCCUCAACCUCCAAUGCAUACCACCACAUGAUGAUGCCUGAAGAGCUUUGGUUAUUUG [U32C C97A C124U U131A],-4.33
9,GACCAAUCUGCCCUCAGAGCUCGAGAACAUCCUCGGAUGCAGAGGAGGCAGGCUUUGGUGGCGCGAUAGCGUCAACGUCCUCAACCUCCAAUGCAUCCCACCACAUGAUGUUGCCUGAAGAGCCUUGGUUUUUUG [U32C C56U C72U A111U],-3.66
10,GACCAAUCUGCCCUCAGAGCUCGAGAACAUCCUCGGAUGCCGAGGAGGCAGGCUUCGGUGGCGCGAUAGCGCCAACGUCCUCAACCUCCAAUGCAUCCCACCACAUGAUGAUGCCUGAAGAGCCUUGGUUUUUUG [U32C A41C],-1.24
11,GACCAAUCUGCCCUCAGAGCUCGAGAACAUCCUCGGAUGCAGAGGAGGCAGGCUUCGGUGGCGCGAUAGCGCCAACGUCCUCAACCUCCAAUGCAUCCCACCACGUGAGGAUGCCUAAAGAGCCUUGGUUUUUUG [U32C A105G U109G G117A],-7.37
12,GACCAAUCUGCCCUCAGAGCUCGAGAACAUCCUCGGAUGCACAGGAGGCAGGCUUCGGUGGCGCGAUAGCGCCAACGUCCUCAACCUCCAAUGCAUCCCACCACAUGAUGAUGCCUGAAGAGGCUUGGUUUUUUG [U32C G42C C123G],1.74
13,GACCAAUCUGCCCUCAGAGCUCGAGAACAUCCUCGGAUGCAGAGGGGGCAGGCUUCGGUGGCGCGAUAGCGCCAACGUCCUCAACCUCCAAUGCAUCCCACCACAUGAAGAUGCCUGAAGAGCCUUGGUUUUUUG [U32C A46G U109A],-3.86
14,GACCAAUCUGCCCUCAGAGCUCGAGAACAUCCUCGGAUGCAGAGGAGGCAGGCUUCGGUGGCGCGAUAGCGGCAACGUCCUCAACCUCCAAUGCAUCCCACCACAUGAUGAUGCCUUAAGAGCCUUGGUUUUUGG [U32C C72G G117U U134G],-1.41
15,GACCAAUCUGCCCUCAGAGCUCGAGAACAUCCUCGAAUGCAGAGGAGGCAGGCUUCGGUGGCGCGAUAGCGCCAACGUCCUCAACCUCCAAAGCAUCCCACCACUUGAUGAUGCCUGAAGAGAGUUGGUUUUUUG [U32C G36A U92A A105U C123A C124G],-5.91
16,GACCAAUCUGCCCUCAGAGCUCGAGAACAUCCUCGGAUGCAGAGGAGGCAGGUUUCGGUGGCGCGAUAGCGCCAACGUCCUCAACCUCCAAUGCAUCCCACCCCAUGAUGAUGCCUGAAGAGCCUUGGUUUUUUG [U32C C53U A103C],-4.2
17,GACCAAUCUGCCCUCAGAGCUCGAGAACAUCAUCGGACGCAGAGGAGGCAGGCUUCGGUGGCGCGAUACCGCCAACGUCCUCAACCUCCAAUGCUUCCCACCACAUGAUGAUGCCUGAAGAGCCUUGGUUUUUUG [U32A U38C G69C A95U],-6.24
18,GACCAAUCUGCCCUCAGAGCUCGAGAACAUCCUCGGAUGCAGAGGAGGCAGGCUUCGGUGGCGCGAUAGCGCCAACGUCCUCAACCUCCAAUGCAUCCUACCACAUGAUGAUGCCUGAAGAGCCUUGGUUUUUUG [U32C C99U],-2.13
19,GACCAAUCUGCCCUCAGAGCUCGAGAACAUCCUCGGAUGGAGAGGAGGCAGGCUUCUGUGGCGCGAUAGCGCCAACGUCCUCAACCUCCAAUGCAUCCCACCACAUGAUGAUGCCUCAAAAGCCUUGGUUUUUUG [U32C C40G G57U G117C G120A],-6.56
20,GACCAAUCUGCCCUCAGAGCUCGAGAACAUCCUCGGAUGCAGAGGAGGCAGGCUUCGGUGGCGCGAUAGGGCCCACGUCCUCAACCUCCAAUGCAUCCCACCACAUGAUGAUGCCUGAAGAGCCUUGGUUUUUUG [U32C C70G A74C],-5.82
21,GACCAAUCUGCCCUCAGAGCUCGAGAACAUCCUCGGAUGCAGAGGAGGCAGGCUUCGGUGGCGCGAUAGCGACAACGUCCUAUACCUCCAAUGCAUCCCACCACAUGAUGAUGCCUGAAGAGCCUUGGUUUUUUG [U32C C72A C82A A83U],-0.635
